Experimental data: the supplement of paper PMC11316812
± gives the standard deviation of the averaged measurements.

What was measured:
hTERT-HMEC = assay: percentage of EdU-negative (G0-arrested) nuclei per well, 72 h; higher = more G0 arrest; settings: reference: sequence is the full UniProt precursor, the tested protein was the secreted form or ectodomain
MCF7 = assay: as above; settings: reference: sequence is the full UniProt precursor, the tested protein was the secreted form or ectodomain
[1] = protein concentration 0.020665 µM
[2] = protein concentration 0.20665 µM
[3] = protein concentration 0.00625 µM
[4] = protein concentration 0.0625 µM
[5] = protein concentration 0.0122857 µM
[6] = protein concentration 0.122857 µM
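Note: secreted proteins added to cultured cells, EdU pulse at the end, nuclei found by Hoechst imaging, EdU status from nuclear versus surrounding ring intensity ratio, PBS as neutral control.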

Sequence: MKVSEAALSLLVLILIITSASRSQPKVPEWVNTPSTCCLKYYEKVLPRRLVVGYRKALNCHLPAIIFVTKRNREVCTNPNDDWVQEYIKDPNLPLLPTRNLSTVKIITAKNGQPQLLNSQ
- percentage of EdU-negative (hTERT-HMEC; [1]): 5.16 ± 1.1%
- percentage of EdU-negative (hTERT-HMEC; [2]): 5.51 ± 0.14%
- percentage of EdU-negative (MCF7; [1]): 22.9 ± 1.1%
- percentage of EdU-negative (MCF7; [2]): 25.9 ± 2.8%

Sequence: MRLSPAPLKLSRTPALLALALPLAAALAFSDETLDKVPKSEGYCSRILRAQGTRREGYTEFSLRVEGDPDFYKPGTSYRVTLSAAPPSYFRGFTLIALRENREGDKEEDHAGTFQIIDEEETQFMSNCPVAVTESTPRRRTRIQVFWIAPPAGTGCVILKASIVQKRIIYFQDEGSLTKKLCEQDSTFDGVTDKPILDCCACGTAKYRLTFYGNWSEKTHPKDYPRRANHWSAIIGGSHSKNYVLWEYGGYASEGVKQVAELGSPVKMEEEIRQQSDEVLTVIKAKAQWPAWQPLNVRAAPSAEFSVDRTRHLMSFLTMMGPSPDWNVGLSAEDLCTKECGWVQKVVQDLIPWDAGTDSGVTYESPNKPTIPQEKIRPLTSLDHPQSPFYDPEGGSITQVARVVIERIARKGEQCNIVPDNVDDIVADLAPEEKDEDDTPETCIYSNWSPWSACSSSTCDKGKRMRQRMLKAQLDLSVPCPDTQDFQPCMGPGCSDEDGSTCTMSEWITWSPCSISCGMGMRSRERYVKQFPEDGSVCTLPTEETEKCTVNEECSPSSCLMTEWGEWDECSATCGMGMKKRHRMIKMNPADGSMCKAETSQAEKCMMPECHTIPCLLSPWSEWSDCSVTCGKGMRTRQRMLKSLAELGDCNEDLEQVEKCMLPECPIDCELTEWSQWSECNKSCGKGHVIRTRMIQMEPQFGGAPCPETVQRKKCRIRKCLRNPSIQKLRWREARESRRSEQLKEESEGEQFPGCRMRPWTAWSECTKLCGGGIQERYMTVKKRFKSSQFTSCKDKKEIRACNVHPC [Q9HCB6]
- percentage of EdU-negative (hTERT-HMEC; [3]): 4.65 ± 0.17%
- percentage of EdU-negative (hTERT-HMEC; [4]): 6.96 ± 0.65%
- percentage of EdU-negative (MCF7; [3]): 24.6 ± 2.6%
- percentage of EdU-negative (MCF7; [4]): 24.8 ± 1.8%

Sequence: MPRGFTWLRYLGIFLGVALGNEPLEMWPLTQNEECTVTGFLRDKLQYRSRLQYMKHYFPINYKISVPYEGVFRIANVTRLQRAQVSERELRYLWVLVSLSATESVQDVLLEGHPSWKYLQEVETLLLNVQQGLTDVEVSPKVESVLSLLNAPGPNLKLVRPKALLDNCFRVMELLYCSCCKQSSVLNWQDCEVPSPQSCSPEPSLQYAATQLYPPPPWSPSSPPHSTGSVRPVRAQGEGLLP [Q6ZMJ4]
- percentage of EdU-negative (hTERT-HMEC; [5]): 4.75 ± 0.29%
- percentage of EdU-negative (hTERT-HMEC; [6]): 18.4 ± 1.3%
- percentage of EdU-negative (MCF7; [5]): 25.6 ± 1.6%
- percentage of EdU-negative (MCF7; [6]): 27.7 ± 1.3%

Sequence: MNCRELPLTLWVLISVSTAESCTSRPHITVVEGEPFYLKHCSCSLAHEIETTTKSWYKSSGSQEHVELNPRSSSRIALHDCVLEFWPVELNDTGSYFFQMKNYTQKWKLNVIRRNKHSCFTERQVTSKIVEVKKFFQITCENSYYQTLVNSTSLYKNCKKLLLENNKNPTIKKNAEFEDQGYYSCVHFLHHNGKLFNITKTFNITIVEDRSNIVPVLLGPKLNHVAVELGKNVRLNCSALLNEEDVIYWMFGEENGSDPNIHEEKEMRIMTPEGKWHASKVLRIENIGESNLNVLYNCTVASTGGTDTKSFILVRKADMADIPGHVFTRGMIIAVLILVAVVCLVTVCVIYRVDLVLFYRHLTRRDETLTDGKTYDAFVSYLKECRPENGEEHTFAVEILPRVLEKHFGYKLCIFERDVVPGGAVVDEIHSLIEKSRRLIIVLSKSYMSNEVRYELESGLHEALVERKIKIILIEFTPVTDFTFLPQSLKLLKSHRVLKWKADKSLSYNSRFWKNLLYLMPAKTVKPGRDEPEVLPVLSES
- percentage of EdU-negative (hTERT-HMEC; protein concentration 0.03 µM): 4.552 ± 0.028%
- percentage of EdU-negative (hTERT-HMEC; protein concentration 0.3 µM): 15.3 ± 3%
- percentage of EdU-negative (MCF7; protein concentration 0.03 µM): 26.3 ± 1.8%
- percentage of EdU-negative (MCF7; protein concentration 0.3 µM): 28.5 ± 0.78%
